Experiments:
[1] = test system: T1, 33-mer gliadin peptide LQLQPFPQPQLPYPQPQLPYPQPQLPYPQPQPF
T1 sequence: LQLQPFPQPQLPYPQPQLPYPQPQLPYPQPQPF

[2] = test system: T2, gliadin peptide PQPQLPYPQPQLP
T2 sequence: PQPQLPYPQPQLP

[3] = test system: recombinant alpha2-gliadin

barley endoprotease EPB2, mature form, sequence (chain, as listed by the source): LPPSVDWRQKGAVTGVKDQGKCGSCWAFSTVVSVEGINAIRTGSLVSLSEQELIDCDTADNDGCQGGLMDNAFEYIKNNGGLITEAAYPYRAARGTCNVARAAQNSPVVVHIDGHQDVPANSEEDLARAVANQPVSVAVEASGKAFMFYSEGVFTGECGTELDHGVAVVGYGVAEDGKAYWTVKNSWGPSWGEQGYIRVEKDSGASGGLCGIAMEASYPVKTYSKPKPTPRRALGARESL

Substance | rate of substrate (33-mer+32-mer) disappearance [1] | Kcat/KM [2] [mM^-1/s^-1] | competitive proteolysis of the 13-mer and the 33-mer [2] | time to hydrolyze 10 µM of the 33-mer with 0.1 µM enzyme [1] | digestion of purified α2-gliadin under acidic conditions [3]
Myxococcus xanthus prolyl endopeptidase (recombinant, expressed in E. coli) | 0.43 µM/min (MX PEP) | 548 | showed a clear preference for the 13-mer peptide |  | 
Sphingomonas capsulata prolyl endopeptidase (recombinant, expressed in E. coli) | 0.07 µM/min (SC PEP) | 492 | showed a clear preference for the 13-mer peptide | required >1 hr to reach a comparable endpoint | 
barley endoprotease EPB2, mature form |  |  |  |  | efficiently digests purified α2-gliadin

From US20050249719
